Data on two molecules can be found in article PMC6532066 (Nature, 2019).

Where two headings read alike, the source gives them in different places.

Common to all, as to test: cryo-EM structure
For experiment [1], the target named is T1, LptF (E. coli K-12, UniProt P0AF98).
T1 sequence: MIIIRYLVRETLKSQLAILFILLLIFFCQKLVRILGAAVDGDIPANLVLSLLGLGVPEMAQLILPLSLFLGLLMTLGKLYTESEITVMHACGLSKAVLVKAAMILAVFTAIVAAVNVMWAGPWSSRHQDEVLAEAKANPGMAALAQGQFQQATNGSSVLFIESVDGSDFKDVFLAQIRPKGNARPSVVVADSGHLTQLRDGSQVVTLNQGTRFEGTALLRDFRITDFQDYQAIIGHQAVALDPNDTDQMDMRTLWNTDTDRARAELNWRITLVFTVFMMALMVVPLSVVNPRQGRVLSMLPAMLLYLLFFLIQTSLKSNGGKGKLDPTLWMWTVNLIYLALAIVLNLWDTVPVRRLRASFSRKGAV

A further experiment concerns the target T2, LptG (E. coli K-12, UniProt P0ADC6).
T2 sequence: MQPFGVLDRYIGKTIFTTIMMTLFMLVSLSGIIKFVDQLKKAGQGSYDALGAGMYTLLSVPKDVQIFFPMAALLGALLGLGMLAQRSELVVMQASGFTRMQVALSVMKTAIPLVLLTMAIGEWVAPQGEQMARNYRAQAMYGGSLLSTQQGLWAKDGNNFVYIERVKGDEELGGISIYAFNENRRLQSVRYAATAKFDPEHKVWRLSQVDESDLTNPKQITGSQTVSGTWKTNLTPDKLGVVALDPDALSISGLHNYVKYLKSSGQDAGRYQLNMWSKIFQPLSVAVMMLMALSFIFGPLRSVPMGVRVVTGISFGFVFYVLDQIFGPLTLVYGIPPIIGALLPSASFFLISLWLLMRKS

For experiment [2], the target named is T1, LptF. The source holds these as a separate data set.

B1: LptC (natural protein)
chain: MSKARRWVIIVLSLAVLVMIGINMAEKDDTAQVVVNNNDPTYKSEHTDTLVYNPEGALSYRLIAQHVEYYSDQAVSWFTQPVLTTFDKDKIPTWSVKADKAKLTNDRMLYLYGHVEVNALVPDSQLRRITTDNAQINLVTQDVTSEDLVTLYGTTFNSSGLKMRGNLRSKNAELIEKVRTSYEIQNKQTQP
Consider B1, for which the binding result with LptF [1] is recorded as “binds”.

B2: LptB (natural protein)
chain: MATLTAKNLAKAYKGRRVVEDVSLTVNSGEIVGLLGPNGAGKTTTFYMVVGIVPRDAGNIIIDDDDISLLPLHARARRGIGYLPQEASIFRRLSVYDNLMAVLQIRDDLSAEQREDRANELMEEFHIEHLRDSMGQSLSGGERRRVEIARALAANPKFILLDEPFAGVDPISVIDIKRIIEHLRDSGLGVLITDHNVRETLAVCERAYIVSQGHLIAHGTPTEILQDEHVKRVYLGEDFRL
For the molecule B2, the binding result with LptG and with LptF [2] was “binds” each time.
